± gives the standard deviation of the averaged measurements.
Assay: total protein half-life in vivo (active degradation + dilution); higher = more stable protein
[1] = E. coli NCM3722 delta-clpP delta-lon delta-hslV, growth: N-lim chemostat, doubling time 6 h
[2] = E. coli NCM3722 delta-clpP, growth: N-lim chemostat, doubling time 6 h
[3] = E. coli NCM3722 delta-smpB, growth: N-lim chemostat, doubling time 6 h
[4] = wild type E. coli NCM3722, growth: C-lim chemostat, doubling time 3 h
[5] = wild type E. coli NCM3722, growth: C-lim chemostat, doubling time 6 h
[6] = wild type E. coli NCM3722, growth: C-lim chemostat, doubling time 12 h
[7] = wild type E. coli NCM3722, growth: N-lim chemostat, doubling time 6 h
[8] = wild type E. coli NCM3722, growth: N-lim chemostat, doubling time 12 h
[9] = wild type E. coli NCM3722, growth: P-lim chemostat, doubling time 12 h
[10] = E. coli NCM3722 delta-hslV, growth: N-lim chemostat, doubling time 6 h
[11] = E. coli NCM3722 delta-lon, growth: N-lim chemostat, doubling time 6 h
[12] = wild type E. coli NCM3722, growth: P-lim chemostat, doubling time 6 h

| Sequence | total protein half-life in vivo [1] | total protein half-life in vivo [2] | total protein half-life in vivo [3] | total protein half-life in vivo [4] | total protein half-life in vivo [5] | total protein half-life in vivo [6] | total protein half-life in vivo [7] | total protein half-life in vivo [8] | total protein half-life in vivo [9] | total protein half-life in vivo [10] | total protein half-life in vivo [11] | total protein half-life in vivo [12] |
| --- | --- | --- | --- | --- | --- | --- | --- | --- | --- | --- | --- | --- |
| MQEYTNHSDTTFALRNISFRVPGRTLLHPLSLTFPAGKVTGLIGHNGSGKSTLLKMLGRHQPPSEGEILLDAQPLESWSSKAFARKVAYLPQQLPPAEGMTVRELVAIGRYPWHGALGRFGAADREKVEEAISLVGLKPLAHRLVDSLSGGERQRAWIAMLVAQDSRCLLLDEPTSALDIAHQVDVLSLVHRLSQERGLTVIAVLHDINMAARYCDYLVALRGGEMIAQGTPAEIMRGETLEMIYGIPMGILPHPAGAAPVSFVY | 5.18 h | 5.55 h | 5.19 ± 0.12 h | 2.65 ± 0.19 h | 6.7 h | 11.4 h | 6.03 ± 0.81 h | 10.7 h | 12.9 ± 3 h |  |  |  |
| MNSHNITNESLALALMLVVVAILISHKEKLALEKDILWSVGRAIIQLIIVGYVLKYIFSVDDASLTLLMVLFICFNAAWNAQKRSKYIAKAFISSFIAITVGAGITLAVLILSGSIEFIPMQVIPIAGMIAGNAMVAVGLCYNNLGQRVISEQQQIQEKLSLGATPKQASAILIRDSIRAALIPTVDSAKTVGLVSLPGMMSGLIFAGIDPVKAIKYQIMVTFMLLSTASLSTIIACYLTYRKFYNSRHQLVVTQLKKK |  | 6.44 ± 0.17 h | 5.86 ± 0.42 h | 3.19 ± 0.54 h | 5.5591 ± 0.0054 h | 9.93 ± 4.5 h | 5.87 ± 0.81 h | 8.27 ± 3 h |  | 6 ± 0.27 h | 5.893 ± 0.034 h | 6.28 ± 0.1 h |
| MGKLTLLLLAILVWLQYSLWFGKNGIHDYTRVNDDVAAQQATNAKLKARNDQLFAEIDDLNGGQEALEERARNELSMTRPGETFYRLVPDASKRAQSAGQNNR [P0A6S5] | 5.44 h | 3.17 h |  | 2.7 h | 4.69 ± 0.55 h |  | 3.47 h | 6.03 h | > 16 h | 4.05 h | 4.37 h |  |
| MITRIPRSSFSANINNTAQTNEHQTLSELFYKELEDKFSGKELATPLLKSFSENCRQNGRHIFSNKDFVIKFSTSVLQADKKEITIINKNENTTLTQTIAPIFEKYLMEILPQRSDTLDKQELNLKSDRKEKEFPRIKLNGQCYFPGRPQNRIVCRHIAAQYINDIYQNVDYKPHQDDYSSAEKFLTHFNKKCKNQTLALVSSRPEGRCVAACGDFGLVMKAYFDKMESNGISVMAAILLVDNHALTVRLRIKNTTEGCTHYVVSVYDPNVTNDKIRIMSESKENIKHYSLMDFMNVDYSLLKWSNDHVINQSVAIIPALPKEQLLMLKGSVDEITPPLSPATMNLLMAIGQNHQLTQLMIQLQKMPELHRTEMLTAYNSINLPGLYLAINYGNADIVETIFNSLSETGYEGLLSKKNLMHILEAKDKNGFSGLFLAISRKDKNVVTSILNALPKLAATHHLDNEQVYKFLSAKNRTSSHVLYHVMANGDADMLKIVLNALPLLIRTCHLTKEQVLDLLKAKDFYGCPGLYLAMQNGHSDIVKVILEALPSLAQEINISASDIVDLLTAKSLARDTGLFMAMQRGHMNVINTIFNALPTLFNTFKFDKKNMKPLLLANNSNEYPGLFSAIQHKQQNVVETVYLALSDHARLFGFTAEDIMDFWQHKAPQKYSAFELAFEFGHRVIAELILNTLNKMAESFGFTDNPRYIAEKNYMEALLKKASPHTVR |  |  |  |  | 5.49 h |  |  |  |  |  |  |  |
| MKNVFKALTVLLTLFSLTGCGLKGPLYFPPADKNAPPPTKPVETQTQSTVPDKNDRATGDGPSQVNY [P0ADN6] | 5.56 ± 0.35 h | 5.27 ± 1.1 h | 6.35 ± 0.59 h | 2.95 ± 0.47 h | 5.25 ± 1.2 h | > 16 h | 6.03 ± 1.2 h |  | 11.8 ± 0.15 h | 6.91 ± 1.1 h | 6.29 ± 0.95 h |  |
| MIVRPQQHWLRRIFVWHGSVLSKISSRLLLNFLFSIAVIFMLPWYTHLGIKFTLAPFSILGVAIAIFLGFRNNAGYARYVEARKLWGQLMIASRSLLREVKTTLPDSASVREFARLQIAFAHCLRMTLRKQPQAEVLAHYLKTEDLQRVLASNSPANRILLIMGEWLAVQRRNGQLSDILFISLNDRLNDISAVLAGCERIAYTPIPFAYTLILHRTVYLFCIMLPFALVVDLHYMTPFISVLISYTFISLDCLAEELEDPFGTENNDLPLDAICNAIEIDLLQMNDEAEIPAKILPDRHYQLT | 6.05 h | 5.43 h |  |  |  |  | 3.6 h | 8.65 h | 11.5 ± 0.23 h | 5.52 h |  | 5.86 ± 0.6 h |
| MEKYLHLLSRGDKIGLTLIRLSIAIVFMWIGLLKFVPYEADSITPFVANSPLMSFFYEHPEDYKQYLTHEGEYKPEARAWQTANNTYGFSNGLGVVEVIIALLVLANPVNRWLGLLGGLMAFTTPLVTLSFLITTPEAWVPALGDAHHGFPYLSGAGRLVLKDTLMLAGAVMIMADSAREILKQRSNESSSTLKTEY |  |  | 5.11 h |  |  | 12.5 h |  | 6.8 h |  |  |  |  |
| MQFLNMFFFDIYPYIAGAVFLIGSWLRYDYGQYTWRAASSQMLDRKGMNLASNLFHIGILGIFVGHFFGMLTPHWMYEAWLPIEVKQKMAMFAGGASGVLCLIGGVLLLKRRLFSPRVRATTTGADILILSLLVIQCALGLLTIPFSAQHMDGSEMMKLVGWAQSVVTFHGGASQHLDGVAFIFRLHLVLGMTLFLLFPFSRLIHIWSVPVEYLTRKYQLVRARH |  |  |  |  |  |  |  | > 16 h |  |  |  |  |

Source: the supplement of paper PMC11246515
